Experiment [1] concerns the target T1, GIPR E354Q (human) (UniProt P48546).
T1 sequence: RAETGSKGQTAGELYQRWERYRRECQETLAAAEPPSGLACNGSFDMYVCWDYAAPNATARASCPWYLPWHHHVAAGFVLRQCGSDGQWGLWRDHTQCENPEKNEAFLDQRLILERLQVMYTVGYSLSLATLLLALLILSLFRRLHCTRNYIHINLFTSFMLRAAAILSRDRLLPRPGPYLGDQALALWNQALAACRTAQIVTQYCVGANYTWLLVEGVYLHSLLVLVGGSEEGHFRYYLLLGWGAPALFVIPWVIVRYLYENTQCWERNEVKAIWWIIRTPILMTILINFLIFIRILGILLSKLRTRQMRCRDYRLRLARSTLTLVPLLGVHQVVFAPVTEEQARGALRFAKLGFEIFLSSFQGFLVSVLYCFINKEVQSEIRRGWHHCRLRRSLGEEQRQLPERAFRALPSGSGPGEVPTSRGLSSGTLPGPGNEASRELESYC

Experiment [2] has as its target T2, GIPR E418K (human) (UniProt P48546).
T2 sequence: T1 sequence with Q333E, E397K

Where a chain is given by its changes, count along the chain named.

For “β-arrestin 2 (Rluc8-Arrestin-3-Sp1) (from UniProt P32121 1-409) (natural protein)”, the β-arrestin 2 recruitment (BRET) on stimulation with GIP(1-42): logEC50 (Arrestin) (log M (inferred)) in experiment [1] was -8.52; in experiment [2] it was -9.19.

Source of the values: publication PMC11272584 (Nature Metabolism, 2024).
